Test results reported in article doi:10.1101/2025.03.16.643542 (bioRxiv, 2025).

B1: nanobody 5B12 (VHH)
VHH: QVQLQESGGGLVQTGDSLRLSCAASGGTLTSYNMGWFRQAPGKDREFVAGISWSGGTGTYYADSVKGRFTISTDNAKNTVYLQMDSLKPDDTAVYYCAVRRRAYSVYTRPGLYDYWGQGTQVTVSS
B2: nanobody 5B1 (VHH)
VHH: QVQLQESGGGLVQAGDSLRLSCAASGRTFSTYTMGWFRQAPGKEREFVAGIGYSDDNTYYTDSVKGRFTVSRGSAKNTVYLQMNSLKPEDTAVYYCAARVGDVVFTIADNYAYWGQGTQVTVSS

Target: epidermal growth factor receptor (EGFR) on EGFR^hi A431 cells (Homo sapiens, A431 cells, UniProt P00533)
Assay: flow cytometry on cells

Binder | EC50
B1 | 4.7 nM
B2 | 76.9 nM
